Laboratory results taken from patent publication US8221990B2, “Screening GPR12 receptor for substances having Nesfatin-1-like action, or which regulate Nesfatin-1 action” (Teijin Pharma Limited, priority 2007, dated 2012).

Experiments:
[1] = target: T1, GPR12 (Mus musculus, UniProt P35412); assay: Expression of a CRE-reporter gene (pCRE-Luc luciferase) in NB41A3 cells expressing GPR12 endogenously; type: cell-based; conditions: NB41A3 cells transfected with pCRE-Luc, 10^-10 M, 16 hours
T1 construct: in which GPR12 was endogenously expressed; endogenous in cells; host or cells: NB41A3 cells (ATCC-CCL147), mouse brain neuroblastoma
T1 sequence (P35412 1-334): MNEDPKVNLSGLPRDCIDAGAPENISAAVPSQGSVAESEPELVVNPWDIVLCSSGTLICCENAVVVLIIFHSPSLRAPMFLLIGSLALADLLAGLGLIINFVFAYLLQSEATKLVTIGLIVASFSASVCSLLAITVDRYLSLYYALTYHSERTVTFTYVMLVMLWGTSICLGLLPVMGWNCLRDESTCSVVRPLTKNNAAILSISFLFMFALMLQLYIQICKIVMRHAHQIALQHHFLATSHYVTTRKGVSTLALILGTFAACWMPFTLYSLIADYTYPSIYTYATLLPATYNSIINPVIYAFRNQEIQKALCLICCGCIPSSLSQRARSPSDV
Description: NB41A3 cells (ATCC-CCL147), a cell strain derived from mouse brain neuroblastoma, in which GPR12 was endogenously expressed were used. The confluent NB41A3 cells were recovered in a 10-cm dish, plated onto 10 cm-dishes after dividing the cell colony in four quarters, and cultured for one day in Ham's F12K medium. The cells were transected with 5 μg of the reporter plasmid pCRE-Luc (Stratagene Corporation, Catalog No. 219074) in which TATA-BOX and luciferase were incorporated into downstream of CRE by a calcium phosphate method. The cells were washed with Ham's F12K medium 16 hours after the transfection. Ham's F12K medium containing no test substance (Vehicle), Ham's F12K medium containing 10^−10 M of Nesfatin-1 M30 (Mid-Segment: SEQ ID NO: 11), Ham's F12K medium containing 10^−10 M of a modified peptide M30_Ag-A (SEQ ID NO: 50) (M30_Ag-A), and Ham's F12K medium containing 10^−10 M of a modified peptide M30_MSH-A (SEQ ID NO: 51) […] were added to the cells, and the resultant mediums were cultured under the conditions of 37° C. and 5% CO2 for 16 hours. After the culturing, the cells were washed twice with phosphate-buffered saline (PBS), lysed with 4 mL of lysis buffer (an aqueous solution containing 25 mM of glycylglicine (pH 7.8), 15 mM of magnesium sulfate, 4 mM of glycol ether diaminetetraacetic acid (EGTA), 1 mM of dithiothreitol (DTT), and 1% (volume/volume) of Triton X-100). […] After adding 200 μL of 0.2 mM of d-luciferin to the diluted cell lysate, the luminescence was measured for 10 seconds by a luminometer, and the amount of luminescence (units) was determined. Further, the amount of protein in each cell lysate was measured by BCA™ Protein Assay Kit-Reducing Agent Compatible (Pearce, Catalog No. 23250), and the value obtained by dividing the amount of luminescence (units) by the amount of protein (μg) in a sample was determined as a luciferase activity. […] The cells were cultured for 16 hours, and then the level of luciferase activity was also determined.

[2] = Amount of food intake in a mouse after intraperitoneal administration; type: in vivo; conditions: C57BL/6J male mouse, 0.25 nmol per gram of body weight, 0 to 3 hours
Description: A 7-week-old C57BL/6J strain male mouse (CLEA Japan, Inc.) was used as an experimental animal. After purchasing the mouse, the mouse was raised at 22° C. in cycles of the 12-hour light period from 6 a.m. to 6 p.m. and the 12-hour dark period from 6 p.m. to 6 a.m. on the next morning with free access to pelleted feed (CLEA Japan, Inc., CE-2).
A 5 nmol aliquot of Nesfatin-1M30 (Mid-segment, SEQ ID NO: 11), M30_Ag-A (SEQ ID NO: 50), or M30_MSH-A (SEQ ID NO: 51) was dissolved in each 100 μL of saline, and each of the resultant solutions was administered intraperitoneally to a C57BL/6J mouse at a dose of 0.25 nmol per gram of body weight of the mouse. In the control group, only saline (Vehicle) was administered. Each mouse (5 mice in each group) was intraperitoneally given a single injection of a sample using a tuberculin syringe with 26 G needle, immediately before the dark period (6 p.m.).
Each mouse administered was placed in an individual cage, and the amount of food intake was determined by measuring the decreased amount of the pelleted feed during the period from 0 to 3 hours after the administration of a test substance. In the mouse administered with each test sample, the amount of food intake during 3 hours after the administration (g/3 h) is shown in FIG. 6.

- luciferase activity compared with Vehicle [1]: enhanced
Substance: Nesfatin-1M30: mid-segment of Nesfatin-1, human-derived Nesfatin-1M30, SEQ ID NO: 11 (PDTGLYYDEYLKQVIDVLETDKHFREKLQK; listed as Homo sapiens)
- amount of food intake during 3 hours after the administration compared with control group (Vehicle) [2]: significant decrease of the food intake
